B1: unmodified H3 10mer effector peptide (H3 Ala1-Ser10) [not stated] / GST-PHD1 (S287-K347) of KDM5A [human] (parent)
chain 1: ARTKQTARKS
chain 2: SVNFVDLYVCMFCGRGNNEDKLLLCDGCDDSYHTFCLIPPLPDVPKGDWRCPKCVAEECSK

We go through one variant from publication PMC6327041, “Histone H3 binding to the PHD1 domain of histone demethylase KDM5A enables active site remodeling” (Nature Communications, 2019).

As usually defined, the Kd is the concentration at which binding is half-saturated.

The variants in this test derive from B1. Briefly: competition-based fluorescence polarization assay. As to conditions: with GST-PHD1 (S287-K347) of KDM5A [human]. (Polarisation of emitted light reports the rotation of a fluorescent probe.)
As to chain 1 AATKQTARKS [chain 1 R2A], the dissociation constant (Kd) came out at 205 µM.
